{"source": "patent US20190184015A1", "about": "“IRRADIATION TREATMENT OF NEUROLOGICAL SENSATIONS BY PHOTOABLATION” (European Molecular Biology Laboratory, priority 2016, published 2019)", "molecules": {"B1": {"name": "BDNF^SNAP-IR700: BDNF^SNAP conjugated in vitro to benzylguanine modified IRDye®700 DX phthalocyanine (conjugate, UniProt P23560 19-247, looked up)", "Neurotrophic factor BDNF …": "APMKEANIRGQGGLAYPGVRTHGTLESVNGPKAGSRGLTSLADTFEHVIEELLDEDQKVRPNEENNKDADLYTSRVMLSSQVPLEPPLLFLLEEYKNYLDAANMSMRVRRHSDPARRGELSVCDSISEWVTAADKKTAVDMSGGTVTVLEKVPVSKGQLKQYFYETKCNPMGYTKEGCRGIDKRHWNSQCRTTQSYVRALTMDSKKRIGWRFIRIDTSCVCTLTIKRGR", "modifications": "C-terminal SNAP tag; IRDye700DX conjugate", "notes": "BDNF^SNAP conjugated in vitro to benzylguanine modified IRDye®700 DX phthalocyanine"}}, "key": {"[1]": {"target": "native TrkB receptors in DRG neurons (mouse) (mouse) (UniProt P15209)", "sequence (P15209 32-821)": "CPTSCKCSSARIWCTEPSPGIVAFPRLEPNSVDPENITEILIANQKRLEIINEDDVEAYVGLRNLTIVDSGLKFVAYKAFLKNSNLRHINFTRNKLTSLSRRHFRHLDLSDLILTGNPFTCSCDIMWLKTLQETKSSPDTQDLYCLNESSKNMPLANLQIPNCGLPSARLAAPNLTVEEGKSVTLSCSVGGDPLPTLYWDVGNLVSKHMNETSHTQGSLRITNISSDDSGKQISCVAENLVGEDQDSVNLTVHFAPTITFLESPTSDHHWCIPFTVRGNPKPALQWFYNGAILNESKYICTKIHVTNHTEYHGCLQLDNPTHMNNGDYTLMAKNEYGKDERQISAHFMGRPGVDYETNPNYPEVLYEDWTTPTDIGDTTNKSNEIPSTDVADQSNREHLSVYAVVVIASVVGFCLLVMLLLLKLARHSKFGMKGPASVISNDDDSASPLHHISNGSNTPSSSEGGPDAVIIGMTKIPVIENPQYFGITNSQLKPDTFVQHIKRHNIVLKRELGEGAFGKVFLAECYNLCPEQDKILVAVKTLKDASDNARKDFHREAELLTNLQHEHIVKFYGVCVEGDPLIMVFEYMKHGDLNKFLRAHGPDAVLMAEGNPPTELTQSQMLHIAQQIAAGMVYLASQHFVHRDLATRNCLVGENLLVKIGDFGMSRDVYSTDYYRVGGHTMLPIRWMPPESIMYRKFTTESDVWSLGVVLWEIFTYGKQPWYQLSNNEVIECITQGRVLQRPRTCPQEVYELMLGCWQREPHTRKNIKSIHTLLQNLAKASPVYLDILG", "experiment": "Qdot 655 conjugated ligand on dissociated DRG of TrkBCreERT2::Rosa26RFP mice, counting of labelled cells"}, "TrkB sensory fibers": {"tested_on": "TrkB sensory fibers", "experiment": "Behavioral sensitivity after photoablation in the sciatic nerve", "assay_type": "in vivo, mouse", "description": "It was further investigated whether optogenetically evoked pain behavior in SNI mice is dependent upon CD34 + cells or TrkB+ fibers in the skin."}, "[2]": {"tested_on": "HEK293T cells expressing TrkB/p75", "experiment": "BDNF^SNAP-IR700 photoablation of HEK293T cells (propidium iodide)", "assay_type": "cell-based", "text": "In initial experiments BDNF^SNAP-IR700 was applied to HEK293T cells expressing TrkB/p75 and cell death assayed following near infrared illumination."}, "skin cell types": {"tested_on": "skin cell types", "conditions": "mouse, in vivo"}, "TrkB+ neurons [3]": {"tested_on": "TrkB+ neurons", "experiment": "Spared Nerve Injury (SNI) model, photoablation in the paw", "assay_type": "in vivo, mouse", "text": "Next neuropathic pain was induced in mice using the Spared Nerve Injury (SNI) model. Control mice developed a profound mechanical hypersensitivity in the sural nerve territory of the paw to both von Frey filaments and dynamic brush stimuli (FIGS. 6D and E). […] The inventors performed further experiments in TrkBCreERT2::Rosa26ChR2 mice to optogenetically activate these neurons. Three days after injury it was observed that selective stimulation of TrkB neurons with light evoked behavior indicative of pain. This was evident as a prolonged paw withdrawal from the stimulation, lifting of the paw and licking of the illuminated area (FIG. 6F) that continued for several minutes after light application. Such behavior persisted throughout the 2 weeks observation period and was never observed in control mice (FIG. 6F).\n(§1) The inventors next sought to assess the therapeutic potential of this approach by investigating the effects of BDNF^SNAP-IR700 mediated photoablation in wildtype mice with neuropathic pain. Upon establishment of robust mechanical allodynia three days after SNI, a range of concentrations of BDNF^SNAP-IR700 was injected into the ipsilateral paw of injured mice and the skin illuminated with different light intensities. […] It was examined whether such pronounced effects were also evident in other types of neuropathic pain. […] To determine the selectivity of this approach, the inventors further assessed the effects of BDNF^SNAP-IR700 mediated photoablation on behavioral responses under basal conditions. No deficits in sensitivity to cold, heat, or pinprick upon treatment were observed (FIG. 8f to h). Responses to cotton swab were also unaffected by photoablation (FIG. 3i), perhaps because the skin area that is stimulated in this test extends beyond the zone of illumination."}, "[4]": {"tested_on": "baseline sensory behavior", "experiment": "Behavioral responses under basal conditions after photoablation in the paw", "assay_type": "in vivo, mouse", "protocol": "as §1"}, "TrkB positive afferents": {"tested_on": "TrkB positive afferents", "experiment": "Innervation of skin and DRG neuron counts after photoablation", "assay_type": "in vivo, mouse", "text": "Prior to photoablation, TrkB positive lanceolate endings were detected around hair follicles (FIG. 9a) and innervating Meissner corpuscles in the plantar surface of the paw. […] It was further investigated whether loss of TrkB^CreERT2 neurons was also evident at the level of the cell soma by analyzing the number of TrkB^CreERT2 positive neurons in the DRG."}, "TrkB+ neurons [5]": {"tested_on": "TrkB+ neurons", "experiment": "Paclitaxel model of chemotherapy induced neuropathic pain", "assay_type": "in vivo, mouse", "protocol": "as §1"}, "TrkB+ neurons [6]": {"tested_on": "TrkB+ neurons", "experiment": "Streptozotocin model of painful diabetic neuropathy", "assay_type": "in vivo, mouse", "protocol": "as §1"}, "[7]": {"conditions": "injection into sciatic nerve, nerve illuminated"}, "[8]": {"conditions": "SNI mice, injection into ipsilateral paw and illumination"}}, "note": "“Also recorded” adds a separate entry of the source."}
{"molecule": "BDNF^SNAP (ligand)", "values": [{"measurement": "overlap between BDNF^SNAP and TrkBCreERT2 positive cells", "setting": "[1]", "result": "> 95", "unit": "%"}]}
{"molecule": "B1", "values": [{"measurement": "light driven nocifensive behavior", "setting": "TrkB sensory fibers; TrkB^CreERT2::Rosa26^ChR2 mice with SNI, sciatic nerve photoablation", "result": "significant reduction in light driven nocifensive behavior; also recorded: reduced by nerve photoablation"}, {"measurement": "behavioral response to cooling (acetone drop test)", "setting": "TrkB sensory fibers; injection into sciatic nerve at mid-thigh level, nerve illuminated", "result": "normal; also recorded: not altered by nerve photoablation"}, {"measurement": "behavioral response to heating (radiant heat test)", "setting": "TrkB sensory fibers; [7]", "result": "normal; also recorded: not altered by nerve photoablation"}, {"measurement": "behavioral response to pinprick", "setting": "TrkB sensory fibers; [7]", "result": "normal; also recorded: not altered by nerve photoablation"}, {"measurement": "sensitivity to cotton swab", "setting": "TrkB sensory fibers; [7]", "result": "reduced by nerve photoablation"}, {"measurement": "cell death after near infrared illumination", "setting": "[2]; HEK293T cells expressing TrkB/p75, 24 hours after brief illumination", "result": "substantial cell death"}, {"measurement": "cell death after near infrared illumination", "setting": "[2]; mock transfected HEK293T cells", "result": "not evident"}, {"measurement": "number of CD34 positive cells in the skin", "setting": "skin cell types", "result": "significantly reduced the number of CD34 positive cells"}, {"measurement": "numbers of Merkel cells, keratinocytes, dendritic and dermal antigen presenting cells in the skin", "setting": "skin cell types", "result": "did not alter their numbers"}, {"measurement": "cotton swab evoked allodynia", "setting": "TrkB+ neurons [3]; [8]", "result": "concentration and illumination dependent rescue; also recorded: reversed by photoablation"}, {"measurement": "dynamic brush evoked allodynia", "setting": "TrkB+ neurons [3]; [8]", "result": "concentration and illumination dependent rescue; also recorded: dose dependent reversal of mechanical hypersensitivity"}, {"measurement": "von Frey withdrawal thresholds", "setting": "TrkB+ neurons [3]; [8]", "result": "concentration and illumination dependent rescue; also recorded: dose dependent reversal of mechanical hypersensitivity"}, {"measurement": "persistence of rescue", "setting": "TrkB+ neurons [3]; after a single treatment regime", "result": "more than 3 weeks"}, {"measurement": "responses to cotton swab", "setting": "[4]", "result": "unaffected; also recorded: does not affect baseline sensory behavior responses"}, {"measurement": "sensitivity to cold (acetone drop test)", "setting": "[4]", "result": "No deficits; also recorded: does not affect baseline sensory behavior responses"}, {"measurement": "sensitivity to heat (hot plate test)", "setting": "[4]", "result": "No deficits; also recorded: does not affect baseline sensory behavior responses"}, {"measurement": "sensitivity to pinprick", "setting": "[4]", "result": "No deficits; also recorded: does not affect baseline sensory behavior responses"}, {"measurement": "innervation of hairy and glabrous skin", "setting": "TrkB positive afferents; 7 days after photoablation (13 days post-SNI)", "result": "selective loss of TrkB fibers but persistent innervation by PGP9.5 fibers; also recorded: Substantial loss of TrkB^CreERT2 positive afferents (red), but persistence of other fibers"}, {"measurement": "proportion of TrkB neurons in the DRG", "setting": "TrkB positive afferents; 10 days after photoablation", "result": "No differences in the proportion of TrkB neurons"}, {"measurement": "innervation of skin by TrkB positive fibers", "setting": "TrkB positive afferents; 24 days post-photoablation", "result": "TrkB positive fibers were again seen innervating their appropriate end organs; also recorded: Reinnervation of skin by TrkB^CreERT2 afferents"}, {"measurement": "return to injury levels", "setting": "TrkB+ neurons [5]", "result": "≤ 20", "unit": "days"}, {"measurement": "time of peak reversal", "setting": "TrkB+ neurons [5]", "result": "around 10 days post treatment"}, {"measurement": "mechanical hypersensitivity", "setting": "TrkB+ neurons [5]; 5 μM at 200 J/cm^2", "result": "marked reversal of mechanical hypersensitivity; also recorded: reverses mechanical allodynia"}, {"measurement": "return to injury levels", "setting": "TrkB+ neurons [6]", "result": "≤ 20", "unit": "days"}, {"measurement": "time of peak reversal", "setting": "TrkB+ neurons [6]", "result": "around 10 days post treatment"}, {"measurement": "mechanical hypersensitivity", "setting": "TrkB+ neurons [6]; 5 μM at 200 J/cm^2", "result": "marked reversal of mechanical hypersensitivity; also recorded: reverses mechanical allodynia"}]}
